Source: patent US9957320 (dated 2018)

Legend:
human IL-13 [1] = molecular target: T1, human IL-13 (human, UniProt P35225); experiment: SPR, 25C, average of 3 determinations
human IL-13 [2] = molecular target: T1, human IL-13; experiment: SPR, average

T1 sequence (P35225 25-146): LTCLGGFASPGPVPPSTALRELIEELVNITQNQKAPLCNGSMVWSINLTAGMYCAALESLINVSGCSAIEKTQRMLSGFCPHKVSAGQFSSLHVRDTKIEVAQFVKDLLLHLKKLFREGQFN

B1: Ab652 Fab (antibody, V domains shown)
VH: QVTLKESGPVLVKPTETLTLTCTVSGFSLSNARMGVSWIRQPPGKALEWLAHIFSNDEKSYSTSLKSRLTISKDTSKSQVVLTMTNMDPVDTATYYCARIYFDYWGQGTLVTVS
VL: DIQMTQSPSSLSASVGDRVTITCLASEDISNYLAWYQQKPGKAPKLLIYHTSRLQDGVPSRFSGSGSGTDFTLTISSLQPEDFATYYCQQGYRFPLTFGGGTKVEIK
Kd (human IL-13 [1]): 0.015 nM | Kd (human IL-13 [2]): 0.0134 nM
